The record followed here is patent US20250115926A1, “DEREGULATED DHS AND TYRA ENZYMES OF GRASSES ENABLE EFFICIENT PRODUCTION OF BOTH TYROSINE AND PHENYLALANINE” (priority 2023, published 2025).

B1: Brachypodium distachyon BdTyrAnc (non-canonical TyrA), SEQ ID NO: 37, recombinant (Brachypodium distachyon) (protein)
chain: AEQEQKQEVAAPCRDAYEKPAVWNTTAADSAEAAPPLRVGIIGFGNFGQFIARGIQRQGHAVLATSRSDYSAYCSAQGIRYFRSLEALCEEQPNVLLVCSSILSTEAVVRAIPFHKLRSDTIVADVLSVKQFPRNLLLEILPPEFGIVCTHPMFGPESGKHGWSTLPFVYDKVRLADKGDQKANCGQFLSIFEGEGCRMVEMSCAEHDRHAAASQFITHTIGRVLAQLNLKSTPINTKGFEALLKLTENTVSDSFDLYYGLFMYNVNATEQIEKLERAFEKVKQMLYGRLHDILRKQIVERVPI
notes: from cDNA
B2: Brachypodium distachyon BdTyrA2, SEQ ID NO: 35, recombinant (Brachypodium distachyon) (protein)
chain: RATDAARQPFDHLSGAVKSEEGTHPRLKIAIVGFGNYGQFLARTMVQQGHTVLAHSRSDHSAAAATIGASFYADAHDLCECQPDVVLLSTSILSAEAVLRSLPVHRFRRSTLFADVLSVKEFPKNLLLAYLPGDFDVICTHPMFGPESARDGWAGLPFVFDEVRVGDGPARRARADAFLDVFAREGCRMVEMSCAEHDAHAAETQFLTHTVGRMLATLDLKSTPINTKGYETLLRLVDNTCSDSFDLYNGLFMYNNNATELLHRLESAMDSVKRRLFDGLHEVLRRQLFEGSPPLNRDSSFPAESSLDDGR
B3: Brachypodium distachyon BdTyrA1, SEQ ID NO: 33, recombinant (Brachypodium distachyon) (protein)
chain: MLSSSTSHLRLHQPSRAARRLPPAPAPATYQFQSPASRRSLPAPAVGARIRPNRGGTIRAIDAAQPFDYESRAAGLLEERQRLKIAIVGFGNFGQFLARTFARQGHTLLAHSRSDHSSLAASLGAAYFQDPHDLCECHPDVVLLATSILSAEAVLRSLPVHRLRRNTLFVDVLSVKEFPKNLLLTTLPEGFDIICTHPMFGPESARDGWDGLPFVFDKVRVGDCPARRARADTFLNIFEREGCRMVEMSCAEHDAHAAETQFLTHTVGRMLATLELQSTPINTKGYETLLRLVDNTCSDSFDLYNGLFMYNKNSTDLLNRLESAMDSVKKRLFDGLHDVLRKQLFEGKASPPATSSNTKSDVHRGQLLLEGKASPAPLNANNTTVRN
notes: from genomic DNA
B4: Sorghum bicolor SbTyrA2, SEQ ID NO: 41, recombinant (Sorghum bicolor) (protein)
chain: ATGASQPLGTDSNEEVEKVEEQPQPPPRLKIAVVGFGTFGQFLARTLVAQGHTVLAHSRSDHSAAAASMGALFFSDPHDLCECHPDVVLLATSILSAESVVRSLPLHRLRRDTLFADVLSVKEFPKRLLLGLLPEEMDILCTHPMFGPESARAGWAGLPFMFDKVRVRDTVPARRARAEAFLDVFAQEGCRMVEMSCAEHDAHAAETQFLTHTVGRMLAALELRATPIDTRGYETLLRLVENTCSDSFDLYNGLFMYNNNSTELLNRLDWAMDAVKRRLFDGLHDVLRRQLFHVGEVEGEAERMEELAVVPGGGPDTDDDGCATATATSIKSGEENN
notes: from genomic DNA
B5: Sorghum bicolor SbTyrAnc (non-canonical TyrA), SEQ ID NO: 43, recombinant (Sorghum bicolor) (protein)
chain: ALTSPSPVEQHLQAVVPCHGISDPPAASSAAAVPAAPLRVGIVGFGNFGQFIAGGLQRQGHVVLAASRSDYSVYCASHGIRFFRSVDALCEEQPDVLLICSSILSTEGVVRAIPFRKLRHDTIVADVLSVKEFPRNLLLEVLPPGFGIICTHPMFGPESGKHGWGKLPFVFDKVRVAEDGDQAAKCDQFLSIFEQEGCRMVEMSCAEHDRYAAGSQFITHTIGRVLSQLNLKSTPINTKGYETLLQLTKNTVSDSFDLYYGLFMYNVNATEQLDKLEMAFEKVRQMLSGRLHDFIRKQIVERAAHVPADPSGKLANGLSSSPAARLL
notes: from cDNA
B6: Sorghum bicolor SbTyrA1, SEQ ID NO: 39, recombinant (Sorghum bicolor) (protein)
chain: MLSSSTSTLRLHQPTRPHRHHPPAPAAGGATHLASPRRWRGHAPGASSPPALRARAQRIRALDAAQPFDFESRAAGLLEERQRLKIAIVGFGNFGQFLARTFARQGHTLLAHSRTDHSALASTLGASFFTDPHDLCECHPDVVLLATSILSAEAVLRSLPVHRLRRNTLFVDVLSVKEFPRNLLLSSLPPDFDVICTHPMFGPESARDGWDGLPFVFDKVRVGDCPARRARAEAFLNIFEREGCRMVEMSCAEHDAHAAETQFLTHTVGRMLAMLELRSTPINTKGYETLLRLVDNTCSDSFDLYNGLFMYNKNSTELLNRVEWAMDSVKKKLFDGLHDVLRKQLFEGSPHAPNVSSSNVRK
notes: from genomic DNA

Substrate in one series: N[C@@H](CC1(C(=O)O)C=CC(O)C=C1)C(=O)O
Description: TyrA arogenate dehydrogenase kinetics and tyrosine inhibition (340 nm). The class given is biochemical, Brachypodium distachyon. The conditions noted are these: other: NADP^+, pH 7.5, 37° C. An excerpt: (§1) Next, to study the biochemical properties of grass TyrA enzymes, we generated and characterized recombinant purified TyrA proteins from Brachypodium (BdTyrA) and Sorghum (SbTyrA), two distantly related grass species^43, 44. Whereas TyrA enzymes from dicot plants are generally NADP^+-dependent arogenate dehydrogenases^20, 39, 45, except for NADP^+-prephenate dehydrogenases in the legume family^40, 46, previous reports on the substrate preference of grass TyrA enzymes are inconclusive^17, 19. […] NAD^+-prephenate dehydrogenase activity was absent in all cases, ruling out a significant contamination of the enzyme preparations with the TyrA enzyme from E. coli^47.48.
With B1, the Michaelis-Menten constant (Km) (in general, the substrate concentration at which the rate is half of its maximum) turned out to be 130 ± 40 µM; the kcat (commonly the maximal rate divided by the concentration of active sites) was 76.5 ± 5.5 s⁻¹; the kcat/Km (commonly the turnover number divided by the Michaelis constant) was determined as 580000 ± 24300 M⁻¹ s⁻¹.

Regarding B2, the Michaelis-Menten constant (Km) was 450 ± 40 µM, the kcat turned out to be 18.5 ± 0.6 s⁻¹ and the kcat/Km was 41200 ± 1700 M⁻¹ s⁻¹.

With B3, the Km worked out at 1410 ± 240 µM, the kcat is 5.2 ± 0.8 s⁻¹ and the kcat/Km was determined as 3600 ± 800 M⁻¹ s⁻¹.

Substrate in a further series: N[C@@H](CC1(C(=O)O)C=CC(O)C=C1)C(=O)O
The series is described as above. The conditions noted are these: other: NADP^+, pH 7.5, 37° C. The class given is biochemical, Sorghum bicolor. The source holds these as a separate data set.
From the text: as §1
For the protein B4, the Km amounted to 2130 ± 530 µM, the catalytic constant (kcat) is 38.5 ± 8.8 s⁻¹ and the kcat/Km came out at 18100 ± 9600 M⁻¹ s⁻¹.

Consider B5, for which the Michaelis constant (Km) came out at 220 ± 60 µM, the kcat worked out at 73.5 ± 18.2 s⁻¹ and the catalytic efficiency (kcat/Km) is 338000 ± 19500 M⁻¹ s⁻¹.

As for B6, the Km turned out to be 570 ± 150 µM, the kcat amounted to 2.9 ± 0.6 s⁻¹ and the kcat/Km was determined as 5300 ± 800 M⁻¹ s⁻¹.
